Measured values as given in article PMC6532856, “A single dose of antibody-drug conjugate cures a stage 1 model of African trypanosomiasis” (PLoS Neglected Tropical Diseases, 2019).
Substitutions are numbered along the chain they refer to.

B1: Tb017 scFv (scFv, V domains shown)
VH: QVQLVQSGAEVKKPGSSVKVSCKASGGTFSSYAISWVRQAPGQGLEWMGGIIPIFGTANYAQKFQGRVTITADESTSTAYMELSSLRSEDTAVYYCARGWWYDLVFDYWGQGTLVTVSS
VL: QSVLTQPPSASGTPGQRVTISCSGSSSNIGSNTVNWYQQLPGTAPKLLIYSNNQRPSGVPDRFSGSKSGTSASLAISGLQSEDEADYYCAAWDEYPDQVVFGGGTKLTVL
notes: framework domains and CDR1-3 marked; source: phage produced from E. coli, phage-containing supernatant
B2: Tb073 scFv (scFv, V domains shown)
VH: B1 VH with W101Y, Y102D, D103M, L104G, V105D, Y108M
VL: QSVLTQPPSASGTPGQRVTISCSGSSSNIGSNTVNWYQQLPGTAPKLLIYSNNQRPSGVPDRFSGSKSGTSASLAISGLQSEDEADYYCAAWDWHHGHVVVFGGGTKLTVL
notes: as for B1
B3: Tb074 scFv (scFv, V domains shown)
VH: B1 VH with Y102H, D103E, L104P, V105G
VL: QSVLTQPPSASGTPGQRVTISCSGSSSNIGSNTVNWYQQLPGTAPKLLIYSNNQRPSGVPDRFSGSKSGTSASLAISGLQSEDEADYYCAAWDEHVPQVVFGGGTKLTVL
notes: as for B1
B4: Tb078 scFv (scFv, V domains shown)
VH: B1 VH with W101I, D103E, L104F, V105I, F106I, Y108A
VL: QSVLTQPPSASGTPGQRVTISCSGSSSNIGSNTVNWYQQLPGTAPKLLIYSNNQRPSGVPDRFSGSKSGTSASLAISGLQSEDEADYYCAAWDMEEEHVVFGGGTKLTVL
notes: as for B1
B5: Tb085 scFv (scFv, V domains shown)
VH: B1 VH with G99E, W100G, Y102D, D103Y, L104G, V105W, Y108F
VL: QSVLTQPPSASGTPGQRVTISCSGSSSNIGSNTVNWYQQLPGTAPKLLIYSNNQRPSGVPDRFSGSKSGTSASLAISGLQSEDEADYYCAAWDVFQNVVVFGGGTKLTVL
notes: as for B1
B6: Tb086 scFv (scFv, V domains shown)
VH: B1 VH with W101Y, D103H, L104G, V105G, F106I
VL: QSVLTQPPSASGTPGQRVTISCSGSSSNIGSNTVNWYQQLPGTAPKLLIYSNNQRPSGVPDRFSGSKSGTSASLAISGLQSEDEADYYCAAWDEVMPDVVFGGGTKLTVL
notes: as for B1

Target: T1, Recombinant HpHbR N-terminal domain (Trypanosoma brucei haptoglobin-haemoglobin receptor) (Trypanosoma brucei brucei, biotin (only for the protein coated on streptavidin-coated plates; site not stated))
T1 construct: also called HpHbR NTD; TbHpHbR NTD; source: recombinant, expressed as previously described [34]
Experiment: ELISA; phage ELISA: 10 ug/ml TbHpHbR NTD coated onto Nunc Maxisorp plates or 5 ug/mL biotinylated protein on streptavidin-coated plates overnight at 4°C; blocked phage supernatants 1 hr at room temperature; bound phage detected with anti-M13 HRP antibody; BSA and streptavidin in parallel
Details: one partner purified

Binder | binding result
B1 | binds
B2 | binds
B3 | binds
B4 | binds
B5 | binds
B6 | binds
